Patent publication US20150276766A1

Target: T1, recombinant GDF11 (UniProt O95390)
T1 sequence (looked up): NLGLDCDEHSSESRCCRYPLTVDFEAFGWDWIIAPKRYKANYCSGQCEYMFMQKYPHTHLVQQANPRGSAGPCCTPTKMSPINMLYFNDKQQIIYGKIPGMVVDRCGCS
Assay: sandwich ELISA, plates coated with mActRIIA-Fc, detected with anti-GDF8/11 antibodies

mActRIIA-Fc (extracellular domain of murine ActRIIA fused to a murine Fc domain; the murine counterpart of SEQ ID NO:7) (from UniProt P27038 21-135) (Fc fusion)
lowest concentration detected in ELISA: 100 pg/mL
